4 molecules from patent CN117069831A (SHENZHEN BGI LIFE SCIENCE RES INSTITUTE, dated 2023) can be followed below.

Usually EC50 stands for the concentration at which the effect is half-maximal. Lower therefore signals an effect from little substance. The Kd is the constant that tells how readily two partners part at equilibrium. A low value points to a tighter complex.

In one assay the target is T1, 非典SARS-CoV-1 spike RBD (SARS-CoV-1, UniProt P59594 306-527).
T1 construct: domain: RBD; also called 非典病毒RBD; 非典SARS-CoV-1RBD
The assay can be described thus: ELISA on coated antigen, anti HA HRP. For orientation: ELISA stands for enzyme-linked immunosorbent assay.

Another assay addresses T2, 野生型SARS-CoV-2 S1抗原 (SARS-CoV-2, UniProt P0DTC2 16-685).
T2 construct: domain: S1; also called SARS-CoV-2S1野生型; S1抗原(义翘)
Description: SPR, Biacore T200, antigen coupled to CM5 chip, nanobody as analyte. (In general: SPR reads the build-up and loss of mass on a sensor chip optically.)

B1: R-30 (VHH)
VHH: QVQLQESGGGLVQSGGSLRLSCTASGGIIRLNSMGWYRQAPGKQREPVATIVSDVGTNYADSVKGRFTISRDNAKNTIYLQMNSLKFEDTAVYYCVADRAFVLRGEYEYWGQGTQVTVSS
notes: also called 第一株RBD纳米抗体R-30
Molecule B1 came in with an EC50 in the assay with 非典SARS-CoV-1 spike RBD of 14.7 nM. The same molecule returned a Kd in the assay with 野生型SARS-CoV-2 S1抗原 of roughly 0.1 nM.

B2: S1-51 (VHH)
VHH: QVQLQESGGGLVQSGGSLRLSCAASGGVSRLNSMGWYRQAPGKQRELVATIISDVGTNYADSVKGRFTISRDNAANTVYLQMNSLKFEDTAVYYCVADRAFVLRGEYEYWGQGTQVTVSS
notes: also called 第三株RBD纳米抗体S1-51
B2 yielded an EC50 in the assay with 非典SARS-CoV-1 spike RBD of 19.2 nM. In addition, the Kd with 野生型SARS-CoV-2 S1抗原 was roughly 0.1 nM.

B3: S1-24 (VHH)
VHH: QVQLQESGGGLVQSGGSLRLSCAASGGVSRLNSMGWYRQAQGKQRELVATIVNDVGTNYADSVKGRFTISRDNAANTVYLLMNSLKFEDTAVYNCVADRAFVLRGEYEYWGQGTQVTVSS
notes: also called 第四株RBD纳米抗体S1-24
In the assay with 非典SARS-CoV-1 spike RBD, B3 had a half-maximal effective concentration (EC50) of 49.3 nM. The same molecule registered a dissociation constant (Kd) with 野生型SARS-CoV-2 S1抗原 of roughly 0.1 nM.

B4: S1-28 (VHH)
VHH: QVQLQESGGGLVQPGGSLRLSCTASGGIIRLNSMGWYRQAPGKQREPVATIVSDVGTNYADSVKGRFTISRDNAKNTIYLQMNSPKFEDTAVYYCVADRAFVLRGEYEYWGQGTQVTVSS
notes: also called 第二株RBD纳米抗体S1-28
In the assay with 非典SARS-CoV-1 spike RBD, B4 displayed an EC50 of 11.4 nM. For the same molecule, in the assay with 野生型SARS-CoV-2 S1抗原, the Kd is roughly 0.1 nM.
